Assay results: PMC2712671

Target: His6-tagged MogR_(1-162) (Listeria monocytogenes) (UniProt P0DJO8)
Test: crystal structure

**Q.** With “His6-tagged MogR_(1-162) (from UniProt P0DJO8 1-162) (domain or fragment)” as the substance, how does the stoichiometry N read?
**A.** Its stoichiometry N is 2.
